From paper PMC6172241, “A multisubstrate reductase from Plantago major: structure-function in the short chain reductase superfamily” (Scientific Reports, 2018)

Legend:
Test in all cases: purified protein
[1] = substrate: C/C(C=O)=C\CC/C(C)=C/C=O; details: 150 µM NADPH, 20 mM MOPS pH 7.0, 3% DMSO, reductive cyclisation to nepetalactol, crystal structure with NADP+ at 1.86 Å
[2] = substrate: CC(=O)[C@H]1CC[C@H]2[C@@H]3CCC4=CC(=O)CC[C@]4(C)[C@H]3CC[C@]12C; details: 150 µM NADPH, 20 mM MOPS pH 7.0, 3% DMSO, substrate 10-200 µM (limited solubility), crystal structure with NAD+ at 2.7 Å, poor ligand density
[3] = substrate: CC(C)=CCC/C(C)=C/C=O; details: 150 µM NADPH, 20 mM MOPS pH 7.0, 3% DMSO, geranial/neral mixture

B1: PmMOR (P. major multisubstrate oxido-reductase) (Plantago major) (protein)
chain: MSWWWAGAIGAAKKRSDEDEALPKHSSVALIVGVTGIVGNSLAEILPLADTPSGPWKVYGVARRPRPAWNEDNPINYIRCDISDPKDTQEKLSPLTDITHVFYVTWANRSTEVERCEANGKMLKNVLDVVIPNCPDLKHISLQTGRKHYVGPFELIGKIETHDPPFTEDLPRLKFDNFYYTQEDLLFEEVEKKEGLTWSVHRPGNIFGFSPYSMMNLVGTLCVYAAICKHEGKVLRFPGCKAAWDGYSDCSDADLIAEHHIWAAVDPYAKNEAFNVSNGDVFKWKHFWKVLAEQFGVECGEYEEGENLKLQDLMKGKEPVWEEIVRENGLASTNLEDVAVWWFSDAVLDIPCPLDSMNKSKEHGFLGFRNSKNSFISWIDKAKAYKIVP
Km [1]: 368 ± 37 µM
Vmax [1]: 0.0053 µmol/min
kcat/Km [1]: 2600 M⁻¹ s⁻¹
Km [2]: 28 ± 3.0 µM
Vmax [2]: 0.00014 µmol/min
kcat/Km [2]: 2100 M⁻¹ s⁻¹
Km [3]: 82 ± 4.5 µM
Vmax [3]: 0.00152 µmol/min
kcat/Km [3]: 17000 M⁻¹ s⁻¹
